The record followed here is FireProtDB (doi:10.1093/protein/gzi051).

As usually defined, the Tm is the temperature at which the thermal transition is half complete.

Sequences and labels used below:
B1: Alpha-lactalbumin, P00711 (parent)
chain: MMSFVSLLLVGILFHATQAEQLTKCEVFRELKDLKGYGGVSLPEWVCTTFHTSGYDTQAIVQNNDSTEYGLFQINNKIWCKDDQNPHSSNICNISCDKFLDDDLTDDIMCVKKILDKVGINYWLAHKALCSEKLDQWLCEKL

In the series the parent is B1. The following applies: Bos taurus, pH 7.7, Thermal, Fluorescence, HEPES-KOH 10 mM, structure 1HFZ, whole UniProt chain shown.

Turning to E20Q, the Tm was 23.5 °C.
For E20M, the melting temperature (Tm) is 36.8 °C. Also, where the note is “CaCl2 1 mM”, the Tm came out at 69.8 °C and the “change of melting temperature, mutant - wild type (higher = more stable)” value (“change of melting temperature, mutant” for short) amounted to 10 °C.
Consider E44A, for which the Tm was 19.5 °C. Where the note is “CaCl2 1 mM”, the Tm is 60.9 °C and the “change of melting temperature, mutant” value came out at 1.1 °C.
The like results for E26Q were, in that order, 27 °C, 67.7 °C and 7.9 °C.
As for E30L, the Tm amounted to 27.5 °C.
As to D56N, the melting temperature (Tm) was determined as 31.7 °C. For the same variant, where the note is “CaCl2 1 mM”, the melting temperature (Tm) was found to be 74.2 °C and the “change of melting temperature, mutant” value was 14.4 °C.
